Experimental findings from publication PMC5811392 are described below.

One series deals with p53 DBD (Homo sapiens, UniProt P04637 88-312). The series is described as follows: fluorescence anisotropy. In general terms: Polarisation of emitted light reports the rotation of a fluorescent probe.
The next series addresses T1, p23 (Homo sapiens, UniProt Q15185 1-160).
T1 sequence: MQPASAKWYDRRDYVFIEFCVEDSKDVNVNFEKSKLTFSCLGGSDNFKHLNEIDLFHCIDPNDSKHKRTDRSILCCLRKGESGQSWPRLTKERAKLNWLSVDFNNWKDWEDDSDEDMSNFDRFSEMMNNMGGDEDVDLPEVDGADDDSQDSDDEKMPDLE
Description: NMR DOSY.

Chain of p53 DBD (P04637 88-312): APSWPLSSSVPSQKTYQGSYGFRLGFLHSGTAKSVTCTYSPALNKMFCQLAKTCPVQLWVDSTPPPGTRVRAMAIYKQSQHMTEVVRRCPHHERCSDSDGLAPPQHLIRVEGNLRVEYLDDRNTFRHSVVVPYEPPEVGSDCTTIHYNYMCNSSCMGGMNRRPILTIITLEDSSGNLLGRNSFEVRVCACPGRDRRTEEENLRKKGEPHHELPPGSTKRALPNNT

B1: p21 20-mer DNA, Cy5 (dsDNA)
DNA 1: GAACATGTTCGAACATGTTC
DNA 2: GAACATGTTCGAACATGTTC
The molecule B1 came in with a Kd with p53 DBD of 45 ± 7 nM.

B2: p21 20-mer DNA, unlabeled (dsDNA)
DNA 1: GAACATGTTCGAACATGTTC
DNA 2: GAACATGTTCGAACATGTTC
On to B2, for which, in the series with p23, the binding result is on record as “no binding”.

What is called Kd is the equilibrium constant for the complex coming apart. A low value points to tighter binding.
